Columns and labels:
[1] = biological target: T1, Mex67 (in Mex67-Mtr2 heterodimer);Mtr2 (in Mex67-Mtr2 heterodimer) (Saccharomyces cerevisiae;Saccharomyces …, UniProt Q99257;P34232 1-599;1-184, |); test: competition; N4 added to complex preformed on N1; labels switched, same effect; 30 mM HEPES-KOH, 160 mM KCl, pH 7.6, Ribolock, 30 C 15 min; 4 uM RNA with 4-44 uM Mex67-Mtr2 (competition 3 uM RNA, 12 uM protein); 0.5% agarose, 1x TAE pH 9.5, 4 C; settings: protein: recombinant;recombinant; HisFF purification;; copies: 1;1; label: Cy5 on one strand; blunt
T1 sequence 1: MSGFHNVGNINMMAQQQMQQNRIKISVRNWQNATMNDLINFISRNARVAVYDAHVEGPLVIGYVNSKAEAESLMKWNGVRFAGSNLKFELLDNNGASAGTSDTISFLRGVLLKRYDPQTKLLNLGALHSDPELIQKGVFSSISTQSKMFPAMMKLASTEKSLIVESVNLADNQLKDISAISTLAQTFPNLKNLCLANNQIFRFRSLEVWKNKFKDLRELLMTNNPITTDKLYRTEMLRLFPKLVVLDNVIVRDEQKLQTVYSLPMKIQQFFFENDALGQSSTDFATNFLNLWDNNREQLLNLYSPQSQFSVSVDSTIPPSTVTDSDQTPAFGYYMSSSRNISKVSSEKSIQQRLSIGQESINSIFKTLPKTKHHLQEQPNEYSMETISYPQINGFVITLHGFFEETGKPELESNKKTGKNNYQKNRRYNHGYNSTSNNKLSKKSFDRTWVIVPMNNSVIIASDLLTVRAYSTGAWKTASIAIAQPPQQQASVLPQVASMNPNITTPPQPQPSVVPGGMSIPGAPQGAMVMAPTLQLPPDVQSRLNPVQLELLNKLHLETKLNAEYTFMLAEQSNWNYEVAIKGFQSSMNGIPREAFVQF
T1 sequence 2: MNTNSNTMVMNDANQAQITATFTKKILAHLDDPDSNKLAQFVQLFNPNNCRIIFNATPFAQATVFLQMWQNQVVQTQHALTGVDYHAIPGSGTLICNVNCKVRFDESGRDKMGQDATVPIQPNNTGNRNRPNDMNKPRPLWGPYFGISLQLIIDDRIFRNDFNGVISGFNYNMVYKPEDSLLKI

[2] = biological target: T1, Mex67 (in Mex67-Mtr2 heterodimer);Mtr2 …; test: EMSA; 4 uM RNA; full upshift at 2-fold, saturated at 5-fold molar excess; 30 mM HEPES-KOH, 160 mM KCl, pH 7.6, Ribolock, 30 C 15 min; 4 uM RNA with 4-44 uM Mex67-Mtr2 (competition 3 uM RNA, 12 uM protein); 0.5% agarose, 1x TAE pH 9.5, 4 C; settings: protein: recombinant;recombinant; HisFF purification;; copies: 1;1; label: FAM; single strand
[3] = biological target: T1, Mex67 (in Mex67-Mtr2 heterodimer);Mtr2 …; test: EMSA; 4 uM RNA; full upshift at 3-fold, saturated at 10-fold molar excess; 30 mM HEPES-KOH, 160 mM KCl, pH 7.6, Ribolock, 30 C 15 min; 4 uM RNA with 4-44 uM Mex67-Mtr2 (competition 3 uM RNA, 12 uM protein); 0.5% agarose, 1x TAE pH 9.5, 4 C; settings: protein: recombinant;recombinant; HisFF purification;; copies: 1;1; label: FAM on one strand; blunt

B1: 36-bp dsRNA, Cy5 (dsRNA)
RNA 1: UUAUAUGUCUUGUUCUCUUGUAUCUGUUCUUGUUGU
RNA 2: ACAACAAGAACAGAUACAAGAGAACAAGACAUAUAA
B1: binds [1].

B2: 36-nt ssRNA, FAM (ssRNA)
RNA: UUUUUUUUAUUGCCUGGUUGCCUGGUUAUUUCUAUU
B2: binds [2].

B3: 36-bp dsRNA, FAM (dsRNA)
RNA 1: UUUUUUUUAUUGCCUGGUUGCCUGGUUAUUUCUAUU
RNA 2: AAUAGAAAUAACCAGGCAACCAGGCAAUAAAAAAAA
B3: binds [3].

Source: PMC11236707, “dsRNA formation leads to preferential nuclear export and gene expression”
